B1: Example 115, conjugate of anti-mesothelin antibody MF-Ta (antibody, human IgG1, lambda, V domains shown)
VH: QVELVQSGAEVKKPGESLKISCKGSGYSFTSYWIGWVRQAPGKGLEWMGIIDPGDSRTRYSPSFQGQVTISADKSISTAYLQWSSLKASDTAMYYCARGQLYGGTYMDGWGQGTLVTVSS
VL: DIALTQPASVSGSPGQSITISCTGTSSDIGGYNSVSWYQQHPGKAPKLMIYGVNNRPSGVSNRFSGSKSGNTASLTISGLQAEDEADYYCSSYDIESATPVFGGGTKLTVLG
modifications: toxophore-linker on Cys sulfur, sites not given
B2: Example 142, conjugate of anti-mesothelin antibody MF-Ta (antibody, human IgG1, lambda, V domains shown)
VH: QVELVQSGAEVKKPGESLKISCKGSGYSFTSYWIGWVRQAPGKGLEWMGIIDPGDSRTRYSPSFQGQVTISADKSISTAYLQWSSLKASDTAMYYCARGQLYGGTYMDGWGQGTLVTVSS
VL: DIALTQPASVSGSPGQSITISCTGTSSDIGGYNSVSWYQQHPGKAPKLMIYGVNNRPSGVSNRFSGSKSGNTASLTISGLQAEDEADYYCSSYDIESATPVFGGGTKLTVLG
modifications: toxophore-linker on Cys sulfur, sites not given
B3: Example 132, conjugate of anti-mesothelin antibody MF-Ta (antibody, human IgG1, lambda, V domains shown)
VH: QVELVQSGAEVKKPGESLKISCKGSGYSFTSYWIGWVRQAPGKGLEWMGIIDPGDSRTRYSPSFQGQVTISADKSISTAYLQWSSLKASDTAMYYCARGQLYGGTYMDGWGQGTLVTVSS
VL: DIALTQPASVSGSPGQSITISCTGTSSDIGGYNSVSWYQQHPGKAPKLMIYGVNNRPSGVSNRFSGSKSGNTASLTISGLQAEDEADYYCSSYDIESATPVFGGGTKLTVLG
modifications: toxophore-linker on Lys NH, sites not given
B4: Example 141, conjugate of anti-mesothelin antibody MF-Ta (antibody, human IgG1, lambda, V domains shown)
VH: QVELVQSGAEVKKPGESLKISCKGSGYSFTSYWIGWVRQAPGKGLEWMGIIDPGDSRTRYSPSFQGQVTISADKSISTAYLQWSSLKASDTAMYYCARGQLYGGTYMDGWGQGTLVTVSS
VL: DIALTQPASVSGSPGQSITISCTGTSSDIGGYNSVSWYQQHPGKAPKLMIYGVNNRPSGVSNRFSGSKSGNTASLTISGLQAEDEADYYCSSYDIESATPVFGGGTKLTVLG
modifications: toxophore-linker on Cys sulfur, sites not given
B5: Example 135, conjugate of anti-mesothelin antibody MF-Ta (antibody, human IgG1, lambda, V domains shown)
VH: QVELVQSGAEVKKPGESLKISCKGSGYSFTSYWIGWVRQAPGKGLEWMGIIDPGDSRTRYSPSFQGQVTISADKSISTAYLQWSSLKASDTAMYYCARGQLYGGTYMDGWGQGTLVTVSS
VL: DIALTQPASVSGSPGQSITISCTGTSSDIGGYNSVSWYQQHPGKAPKLMIYGVNNRPSGVSNRFSGSKSGNTASLTISGLQAEDEADYYCSSYDIESATPVFGGGTKLTVLG
modifications: toxophore-linker on Cys sulfur, sites not given
B6: Example 137, conjugate of anti-mesothelin antibody MF-Ta (antibody, human IgG1, lambda, V domains shown)
VH: QVELVQSGAEVKKPGESLKISCKGSGYSFTSYWIGWVRQAPGKGLEWMGIIDPGDSRTRYSPSFQGQVTISADKSISTAYLQWSSLKASDTAMYYCARGQLYGGTYMDGWGQGTLVTVSS
VL: DIALTQPASVSGSPGQSITISCTGTSSDIGGYNSVSWYQQHPGKAPKLMIYGVNNRPSGVSNRFSGSKSGNTASLTISGLQAEDEADYYCSSYDIESATPVFGGGTKLTVLG
modifications: toxophore-linker on Cys sulfur, sites not given
B7: Example 131, conjugate of anti-mesothelin antibody MF-Ta (antibody, human IgG1, lambda, V domains shown)
VH: QVELVQSGAEVKKPGESLKISCKGSGYSFTSYWIGWVRQAPGKGLEWMGIIDPGDSRTRYSPSFQGQVTISADKSISTAYLQWSSLKASDTAMYYCARGQLYGGTYMDGWGQGTLVTVSS
VL: DIALTQPASVSGSPGQSITISCTGTSSDIGGYNSVSWYQQHPGKAPKLMIYGVNNRPSGVSNRFSGSKSGNTASLTISGLQAEDEADYYCSSYDIESATPVFGGGTKLTVLG
modifications: toxophore-linker on Cys sulfur, sites not given
B8: Example 138, conjugate of anti-mesothelin antibody MF-Ta (antibody, human IgG1, lambda, V domains shown)
VH: QVELVQSGAEVKKPGESLKISCKGSGYSFTSYWIGWVRQAPGKGLEWMGIIDPGDSRTRYSPSFQGQVTISADKSISTAYLQWSSLKASDTAMYYCARGQLYGGTYMDGWGQGTLVTVSS
VL: DIALTQPASVSGSPGQSITISCTGTSSDIGGYNSVSWYQQHPGKAPKLMIYGVNNRPSGVSNRFSGSKSGNTASLTISGLQAEDEADYYCSSYDIESATPVFGGGTKLTVLG
modifications: toxophore-linker on Cys sulfur, sites not given
B9: Example 143, conjugate of anti-mesothelin antibody MF-Ta (antibody, human IgG1, lambda, V domains shown)
VH: QVELVQSGAEVKKPGESLKISCKGSGYSFTSYWIGWVRQAPGKGLEWMGIIDPGDSRTRYSPSFQGQVTISADKSISTAYLQWSSLKASDTAMYYCARGQLYGGTYMDGWGQGTLVTVSS
VL: DIALTQPASVSGSPGQSITISCTGTSSDIGGYNSVSWYQQHPGKAPKLMIYGVNNRPSGVSNRFSGSKSGNTASLTISGLQAEDEADYYCSSYDIESATPVFGGGTKLTVLG
modifications: toxophore-linker on Lys NH, sites not given
B10: Example 139, conjugate of anti-mesothelin antibody MF-Ta (antibody, human IgG1, lambda, V domains shown)
VH: QVELVQSGAEVKKPGESLKISCKGSGYSFTSYWIGWVRQAPGKGLEWMGIIDPGDSRTRYSPSFQGQVTISADKSISTAYLQWSSLKASDTAMYYCARGQLYGGTYMDGWGQGTLVTVSS
VL: DIALTQPASVSGSPGQSITISCTGTSSDIGGYNSVSWYQQHPGKAPKLMIYGVNNRPSGVSNRFSGSKSGNTASLTISGLQAEDEADYYCSSYDIESATPVFGGGTKLTVLG
modifications: toxophore-linker on Cys sulfur, sites not given
B11: Example 148, conjugate of anti-mesothelin antibody MF-Ta (antibody, human IgG1, lambda, V domains shown)
VH: QVELVQSGAEVKKPGESLKISCKGSGYSFTSYWIGWVRQAPGKGLEWMGIIDPGDSRTRYSPSFQGQVTISADKSISTAYLQWSSLKASDTAMYYCARGQLYGGTYMDGWGQGTLVTVSS
VL: DIALTQPASVSGSPGQSITISCTGTSSDIGGYNSVSWYQQHPGKAPKLMIYGVNNRPSGVSNRFSGSKSGNTASLTISGLQAEDEADYYCSSYDIESATPVFGGGTKLTVLG
modifications: toxophore-linker on Lys NH, sites not given
B12: Example 140, conjugate of anti-mesothelin antibody MF-Ta (antibody, human IgG1, lambda, V domains shown)
VH: QVELVQSGAEVKKPGESLKISCKGSGYSFTSYWIGWVRQAPGKGLEWMGIIDPGDSRTRYSPSFQGQVTISADKSISTAYLQWSSLKASDTAMYYCARGQLYGGTYMDGWGQGTLVTVSS
VL: DIALTQPASVSGSPGQSITISCTGTSSDIGGYNSVSWYQQHPGKAPKLMIYGVNNRPSGVSNRFSGSKSGNTASLTISGLQAEDEADYYCSSYDIESATPVFGGGTKLTVLG
modifications: toxophore-linker on Lys NH, sites not given
B13: Example 130, conjugate of anti-mesothelin antibody MF-Ta (antibody, human IgG1, lambda, V domains shown)
VH: QVELVQSGAEVKKPGESLKISCKGSGYSFTSYWIGWVRQAPGKGLEWMGIIDPGDSRTRYSPSFQGQVTISADKSISTAYLQWSSLKASDTAMYYCARGQLYGGTYMDGWGQGTLVTVSS
VL: DIALTQPASVSGSPGQSITISCTGTSSDIGGYNSVSWYQQHPGKAPKLMIYGVNNRPSGVSNRFSGSKSGNTASLTISGLQAEDEADYYCSSYDIESATPVFGGGTKLTVLG
modifications: toxophore-linker on Cys sulfur, sites not given
B14: Example 147, conjugate of anti-mesothelin antibody MF-Ta (antibody, human IgG1, lambda, V domains shown)
VH: QVELVQSGAEVKKPGESLKISCKGSGYSFTSYWIGWVRQAPGKGLEWMGIIDPGDSRTRYSPSFQGQVTISADKSISTAYLQWSSLKASDTAMYYCARGQLYGGTYMDGWGQGTLVTVSS
VL: DIALTQPASVSGSPGQSITISCTGTSSDIGGYNSVSWYQQHPGKAPKLMIYGVNNRPSGVSNRFSGSKSGNTASLTISGLQAEDEADYYCSSYDIESATPVFGGGTKLTVLG
modifications: toxophore-linker on Lys NH, sites not given
B15: Example 134, conjugate of anti-mesothelin antibody MF-Ta (antibody, human IgG1, lambda, V domains shown)
VH: QVELVQSGAEVKKPGESLKISCKGSGYSFTSYWIGWVRQAPGKGLEWMGIIDPGDSRTRYSPSFQGQVTISADKSISTAYLQWSSLKASDTAMYYCARGQLYGGTYMDGWGQGTLVTVSS
VL: DIALTQPASVSGSPGQSITISCTGTSSDIGGYNSVSWYQQHPGKAPKLMIYGVNNRPSGVSNRFSGSKSGNTASLTISGLQAEDEADYYCSSYDIESATPVFGGGTKLTVLG
modifications: toxophore-linker on Cys sulfur, sites not given
B16: Example 144, conjugate of anti-mesothelin antibody MF-Ta (antibody, human IgG1, lambda, V domains shown)
VH: QVELVQSGAEVKKPGESLKISCKGSGYSFTSYWIGWVRQAPGKGLEWMGIIDPGDSRTRYSPSFQGQVTISADKSISTAYLQWSSLKASDTAMYYCARGQLYGGTYMDGWGQGTLVTVSS
VL: DIALTQPASVSGSPGQSITISCTGTSSDIGGYNSVSWYQQHPGKAPKLMIYGVNNRPSGVSNRFSGSKSGNTASLTISGLQAEDEADYYCSSYDIESATPVFGGGTKLTVLG
modifications: toxophore-linker on Lys NH, sites not given
B17: Example 146, conjugate of anti-mesothelin antibody MF-Ta (antibody, human IgG1, lambda, V domains shown)
VH: QVELVQSGAEVKKPGESLKISCKGSGYSFTSYWIGWVRQAPGKGLEWMGIIDPGDSRTRYSPSFQGQVTISADKSISTAYLQWSSLKASDTAMYYCARGQLYGGTYMDGWGQGTLVTVSS
VL: DIALTQPASVSGSPGQSITISCTGTSSDIGGYNSVSWYQQHPGKAPKLMIYGVNNRPSGVSNRFSGSKSGNTASLTISGLQAEDEADYYCSSYDIESATPVFGGGTKLTVLG
modifications: toxophore-linker on Lys NH, sites not given
B18: Example 133, conjugate of anti-mesothelin antibody MF-Ta (antibody, human IgG1, lambda, V domains shown)
VH: QVELVQSGAEVKKPGESLKISCKGSGYSFTSYWIGWVRQAPGKGLEWMGIIDPGDSRTRYSPSFQGQVTISADKSISTAYLQWSSLKASDTAMYYCARGQLYGGTYMDGWGQGTLVTVSS
VL: DIALTQPASVSGSPGQSITISCTGTSSDIGGYNSVSWYQQHPGKAPKLMIYGVNNRPSGVSNRFSGSKSGNTASLTISGLQAEDEADYYCSSYDIESATPVFGGGTKLTVLG
modifications: toxophore-linker on Cys sulfur, sites not given
B19: Example 145, conjugate of anti-mesothelin antibody MF-Ta (antibody, human IgG1, lambda, V domains shown)
VH: QVELVQSGAEVKKPGESLKISCKGSGYSFTSYWIGWVRQAPGKGLEWMGIIDPGDSRTRYSPSFQGQVTISADKSISTAYLQWSSLKASDTAMYYCARGQLYGGTYMDGWGQGTLVTVSS
VL: DIALTQPASVSGSPGQSITISCTGTSSDIGGYNSVSWYQQHPGKAPKLMIYGVNNRPSGVSNRFSGSKSGNTASLTISGLQAEDEADYYCSSYDIESATPVFGGGTKLTVLG
modifications: toxophore-linker on Lys NH, sites not given
B20: Example 129, conjugate of anti-mesothelin antibody MF-Ta (antibody, human IgG1, lambda, V domains shown)
VH: QVELVQSGAEVKKPGESLKISCKGSGYSFTSYWIGWVRQAPGKGLEWMGIIDPGDSRTRYSPSFQGQVTISADKSISTAYLQWSSLKASDTAMYYCARGQLYGGTYMDGWGQGTLVTVSS
VL: DIALTQPASVSGSPGQSITISCTGTSSDIGGYNSVSWYQQHPGKAPKLMIYGVNNRPSGVSNRFSGSKSGNTASLTISGLQAEDEADYYCSSYDIESATPVFGGGTKLTVLG
modifications: toxophore-linker on Cys sulfur, sites not given
B21: Example 136, conjugate of anti-mesothelin antibody MF-Ta (antibody, human IgG1, lambda, V domains shown)
VH: QVELVQSGAEVKKPGESLKISCKGSGYSFTSYWIGWVRQAPGKGLEWMGIIDPGDSRTRYSPSFQGQVTISADKSISTAYLQWSSLKASDTAMYYCARGQLYGGTYMDGWGQGTLVTVSS
VL: DIALTQPASVSGSPGQSITISCTGTSSDIGGYNSVSWYQQHPGKAPKLMIYGVNNRPSGVSNRFSGSKSGNTASLTISGLQAEDEADYYCSSYDIESATPVFGGGTKLTVLG
modifications: toxophore-linker on Lys NH, sites not given

Molecular target: Mesothelin (SwissProt reference Q13421-3) (Homo sapiens, UniProt Q13421 37-622)
Assay: cell-based or functional assay

Row | Binder | IC50 (nM), HT29 meso+ cells, MTT proliferation assay [nM]
1 | B1 | 0.06
2 | B2 | 0.27
3 | B3 | 3.3
4 | B4 | 43
5 | B5 | 0.25
6 | B6 | 0.04
7 | B7 | 0.09
8 | B8 | 0.3
9 | B9 | 0.3
10 | B10 | 70
11 | B11 | 425
12 | B12 | 6.8
13 | B13 | 0.13
14 | B14 | 5.6
15 | B15 | 0.03
16 | B16 | 2.7
17 | B17 | 13
18 | B18 | 2.1
19 | B19 | 7.4
20 | B20 | 5.3
21 | B21 | 1.6
